Measurements: doi:10.1101/2023.03.02.530905 (bioRxiv, 2023)

Biological target: the molecule itself
Experiment: cross-linking

Row | Protein | stoichiometry N
1 | GM130 N122-oDi-his (other) MWPPRFPPPRPGMSEETRQSKLAAAKKKLREYQQKNSPGVPAGAKKKKKIKNGHSPERTSASDCQSAENVPTDHTAPAPPSTAAATMFLGVVPSPDADLIQSHDAGNCSNLMEETKTFSSTEGEIAALKQEIAALKKENAALKFEIAALKQG | 2
2 | GM130 N122-oTet-his (other) MWPPRFPPPRPGMSEETRQSKLAAAKKKLREYQQKNSPGVPAGAKKKKKIKNGHSPERTSASDCQSAENVPTDHTAPAPPSTAAATMFLGVVPSPDADLIQSHDAGNCSNLMEETKTFSSTEGELAAIKQELAAIKKELAAIKWELAAIKQG | 4
